# Laboratory results: IntAct's records for PubMed 8940099
# B1: NF-kappa-B inhibitor alpha (Homo sapiens), P25963 (parent)
# chain: MFQAAERPQEWAMEGPRDGLKKERLLDDRHDSGLDSMKDEEYEQMVKELQEIRLEPQEVPRGSEPWKQQLTEDGDSFLHLAIIHEEKALTMEVIRQVKGDLAFLNFQNNLQQTPLHLAVITNQPEIAEALLGAGCDPELRDFRGNTPLHLACEQGCLASVGVLTQSCTTPHLHSILKATNYNGHTCLHLASIHGYLGIVELLVSLGADVNAQEPCNGRTALHLAVDLQNPDLVSLLLKCGADVNRVTYQGYSPYQLTWGRPSTRIQQQLGQLTLENLQMLPESEDEESYDTESEFTEFTEDELPYDDCVFGGQRLTL
# partner: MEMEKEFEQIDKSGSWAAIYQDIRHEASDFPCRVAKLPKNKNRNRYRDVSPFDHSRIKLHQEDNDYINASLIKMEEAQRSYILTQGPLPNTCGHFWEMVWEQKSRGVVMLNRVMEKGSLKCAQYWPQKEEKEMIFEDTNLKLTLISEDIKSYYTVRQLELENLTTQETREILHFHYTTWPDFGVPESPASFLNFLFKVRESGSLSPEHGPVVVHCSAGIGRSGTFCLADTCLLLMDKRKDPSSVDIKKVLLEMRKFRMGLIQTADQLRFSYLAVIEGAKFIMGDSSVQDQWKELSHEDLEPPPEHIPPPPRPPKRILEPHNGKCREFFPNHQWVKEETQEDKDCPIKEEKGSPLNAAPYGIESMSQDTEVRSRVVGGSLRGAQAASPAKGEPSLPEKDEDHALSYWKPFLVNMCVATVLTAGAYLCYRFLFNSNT
# Variants of: B1
# Conditions: with ptn1_human PTPN1, P18031
row,effect of a mutation on the interaction,Variant
1,disrupting interaction,Y42F
